From US20250011456A1, “ANTIBODIES AGAINST CD14 AND USES THEREOF” (Villanelle Life Science Inc, priority 2023, published 2025)
“And” between values parts separate entries of the source, which are not always exact repeats. Equal entries are not always repeated.

System: CD14 positive recurrent bladder cancer patient-derived xenograft (PDX)
Test: Anti-CD14 IgG1/IgG4 with or without cisplatin, tumor treatment in PDX mice (tumor length, width, volume, tumor weight; Example 6)
Type: in vivo
Details: for Tumor Length / Tumor Volume / Tumor Width: IgG4 5 mg/kg i.v. (Ex. 2), PDX mice 1-6
Excerpt: After removing the primary tumor tissue from the patient, the tissue was temporarily placed in a complete culture medium containing RPMI1640 (Gibco Roswell Park Memorial Institute 1640 Media)+PS (penicillin and streptomycin)+10% FBS (Fetal bovine serum). The tissue was then transported to a sterile operating room within an SPF-grade (Specific Pathogen Free) animal facility. The tumor tissue was cut to an appropriate size (5 millimeters (mm) in diameter). Severely immunodeficient NSG (NOD scid gamma mouse) mice were anesthetized using an isoflurane respirator. The tumor was transplanted subcutaneously into the right rib area through surgery. When the tumor volume reached 1 cm^3, it was passaged following the same procedure, and after expanding for three generations, the tumor became stable for use in formal experiments. During the experiment, passaging and expansion were performed as needed. When the tumor volume reached 100 mm^3, the mice were divided into groups according to the experimental requirements and treated with drugs.
The IgG4 tested is the original version of Atibuclimab.
Drug administration on the PDX mice was performed intravenously.

B1: IgG4: The IgG4 tested is the original version of Atibuclimab (anti-CD14 antibody) (antibody, V domains shown)
VH: DVQLQQSGPGLVKPSQSLSLTCTVTGYSITSDSAWNWIRQFPGNRLEWMGYISYSGSTSYNPSLKSRISITRDTSKNQFFLQLNSVTTEDTATYYCVRGLRFAYWGQGTLVTVSS
VL: DIVLTQSPASLAVSLGQRATISCRASESVDSYVNSFLHWYQQKPGQPPKLLIYRASNLQSGIPARFSGSGSRTDFTLTINPVEADDVATYYCQQSNEDPYTFGGGTKLEIK
modifications: IgG4 constant regions
Tumor Length (Day 0, 5 mg/kg): 6.27 mm and 8.76 mm and 6.59 mm and 7.42 mm and 6.33 mm and 6.02 mm | Tumor Volume (Day 0, 5 mg/kg): 71.87 mm^3 and 99.55 mm^3 and 90.05 mm^3 and 93.23 mm^3 and 102.04 mm^3 and 77.19 mm^3 | Tumor Width (Day 0, 5 mg/kg): 4.68 mm and 4.66 mm and 5.11 mm and 4.9 mm and 5.55 mm and 4.95 mm | Tumor Length (Day 4, 5 mg/kg): 6.09 mm and 6.4 mm and 7.29 mm and 6.97 mm and 6.34 mm and 6.38 mm | Tumor Volume (Day 4, 5 mg/kg): 113.97 mm^3 and 113.45 mm^3 and 97.29 mm^3 and 124.83 mm^3 and 104.42 mm^3 and 77.89 mm^3 | Tumor Width (Day 4, 5 mg/kg): 5.98 mm and 5.82 mm and 5.05 mm and 5.85 mm and 5.61 mm and 4.83 mm | Tumor Length (Day 7, 5 mg/kg): 7.28 mm and 7.86 mm and 8.67 mm and 6.99 mm and 8.27 mm | Tumor Volume (Day 7, 5 mg/kg): 180.86 mm^3 and 117.78 mm^3 and 198.12 mm^3 and 140.77 mm^3 and 173.66 mm^3 and 136.21 mm^3 | Tumor Width (Day 7, 5 mg/kg): 6.89 mm and 5.56 mm and 6.94 mm and 5.57 mm and 5.61 mm | Tumor Length (Day 11, 5 mg/kg): 8.11 mm and 8.29 mm and 6.98 mm and 8.22 mm and 7.53 mm and 8.23 mm | Tumor Width (Day 11, 5 mg/kg): 5.81 mm and 7.35 mm and 5.72 mm and 8.04 mm and 7.15 mm and 7.08 mm | Tumor Length (Day 14, 5 mg/kg): 8.23 mm and 8.98 mm and 8.47 mm and 7.26 mm and 9.3 mm and 9.49 mm | Tumor Volume (Day 14, 5 mg/kg): 222.04 mm^3 and 307.58 mm^3 and 251.33 mm^3 and 190.45 mm^3 and 320.90 mm^3 and 371.60 mm^3 | Tumor Width (Day 14, 5 mg/kg): 7.18 mm and 8.09 mm and 7.53 mm and 7.08 mm and 8.12 mm and 8.65 mm | Tumor Length (Day 18, 5 mg/kg): 8.68 mm and 10.39 mm and 9.13 mm and 9.05 mm and 9.45 mm and 9.95 mm | Tumor Volume (Day 18, 5 mg/kg): 324.35 mm^3 and 536.16 mm^3 and 383.59 mm^3 and 344.61 mm^3 and 334.97 mm^3 and 363.06 mm^3 | Tumor Width (Day 18, 5 mg/kg): 8.45 mm and 9.93 mm and 8.96 mm and 8.53 mm and 8.23 mm and 8.35 mm | Tumor Length (Day 21, 5 mg/kg): 10.54 mm and 10.95 mm and 9.73 mm and 10.89 mm and 10.09 mm and 10.17 mm | Tumor Volume (Day 21, 5 mg/kg): 450.77 mm^3 and 632.99 mm^3 and 424.46 mm^3 and 505.72 mm^3 and 463.61 mm^3 and 487.44 mm^3 | Tumor Width (Day 21, 5 mg/kg): 9.04 mm and 10.51 mm and 9.13 mm and 9.42 mm and 9.37 mm and 9.57 mm | Tumor Length (Day 25, 5 mg/kg): 12.37 mm and 11.71 mm and 10.99 mm and 12.36 mm and 12.63 mm | Tumor Volume (Day 25, 5 mg/kg): 724.64 mm^3 and 746.92 mm^3 and 567.12 mm^3 and 525.64 mm^3 and 639.10 mm^3 and 698.50 mm^3 | Tumor Width (Day 25, 5 mg/kg): 10.58 mm and 11.04 mm and 9.93 mm and 9.56 mm and 9.94 mm and 10.28 mm | Tumor Length (Day 28, 5 mg/kg): 11.25 mm and 11.92 mm and 12.46 mm and 12.52 mm and 12.24 mm and 12.94 mm | Tumor Volume (Day 28, 5 mg/kg): 728.02 mm^3 and 719.55 mm^3 and 840.02 mm^3 and 932.53 mm^3 and 835.40 mm^3 and 919.10 mm^3 | Tumor Width (Day 28, 5 mg/kg): 11.12 mm and 10.74 mm and 11.35 mm and 11.93 mm and 11.42 mm and 11.65 mm | Tumor weight after 28 days (IgG4 (5 mg/kg), Ex. 2, per mouse 1-6, 5 mg/kg): 0.779 grams and 0.769 grams and 0.739 grams and 0.863 grams and 0.852 grams and 0.649 grams | tumor suppression rate (single anti-CD14-IgG4 5 mg/kg (Ex. 2), after 28 days): about 25%
